Patent US20060223116

Columns and labels:
[1] = system: T1, truncated GST-fusion T-bet protein, C-terminal fragment
T1 sequence (Q9UL17 whole entry, species assumed, looked up): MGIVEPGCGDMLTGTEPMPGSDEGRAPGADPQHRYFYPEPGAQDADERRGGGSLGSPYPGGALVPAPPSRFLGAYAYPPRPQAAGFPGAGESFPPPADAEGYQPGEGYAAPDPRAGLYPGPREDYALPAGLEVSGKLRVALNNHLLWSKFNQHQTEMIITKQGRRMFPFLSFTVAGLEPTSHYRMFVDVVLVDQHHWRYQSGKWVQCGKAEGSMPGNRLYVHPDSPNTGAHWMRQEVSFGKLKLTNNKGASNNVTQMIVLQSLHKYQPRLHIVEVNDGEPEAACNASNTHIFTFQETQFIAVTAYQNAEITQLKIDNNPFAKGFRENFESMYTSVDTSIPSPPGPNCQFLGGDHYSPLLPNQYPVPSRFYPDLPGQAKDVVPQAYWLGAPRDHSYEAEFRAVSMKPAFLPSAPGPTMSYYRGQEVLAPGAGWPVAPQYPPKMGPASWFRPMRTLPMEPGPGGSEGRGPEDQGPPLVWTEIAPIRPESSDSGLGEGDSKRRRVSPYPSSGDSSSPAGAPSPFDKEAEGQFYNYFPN

[2] = system: T2, truncated GST-fusion T-bet protein, N-terminal fragment
T2 sequence (Q9UL17 whole entry, species assumed, looked up): T1 sequence (Q9UL17 whole entry, species assumed, looked up)

B1: ITK-FLAG (full length IL-2 inducible T cell tyrosine kinase, FLAG-tagged) (enzyme, UniProt Q08881 1-620, looked up, species assumed)
chain: MNNFILLEEQLIKKSQQKRRTSPSNFKVRFFVLTKASLAYFEDRHGKKRTLKGSIELSRIKCVEIVKSDISIPCHYKYPFQVVHDNYLLYVFAPDRESRQRWVLALKEETRNNNSLVPKYHPNFWMDGKWRCCSQLEKLATGCAQYDPTKNASKKPLPPTPEDNRRPLWEPEETVVIALYDYQTNDPQELALRRNEEYCLLDSSEIHWWRVQDRNGHEGYVPSSYLVEKSPNNLETYEWYNKSISRDKAEKLLLDTGKEGAFMVRDSRTAGTYTVSVFTKAVVSENNPCIKHYHIKETNDNPKRYYVAEKYVFDSIPLLINYHQHNGGGLVTRLRYPVCFGRQKAPVTAGLRYGKWVIDPSELTFVQEIGSGQFGLVHLGYWLNKDKVAIKTIREGAMSEEDFIEEAEVMMKLSHPKLVQLYGVCLEQAPICLVFEFMEHGCLSDYLRTQRGLFAAETLLGMCLDVCEGMAYLEEACVIHRDLAARNCLVGENQVIKVSDFGMTRFVLDDQYTSSTGTKFPVKWASPEVFSFSRYSSKSDVWSFGVLMWEVFSEGKIPYENRSNSEVVEDISTGFRLYKPRLASTHVYQIMNHCWKERPEDRPAFSRLLRQLAEIAESGL
modifications: full-length FLAG tag
- in vitro kinase assay (32P-ATP, autoradiography) [1]: both the N and C terminal fragments but not the DNA binding domain, could be phosphorylated by the Tec kinases, ITK and RLK
- in vitro kinase assay (32P-ATP, autoradiography) [2]: both the N and C terminal fragments but not the DNA binding domain, could be phosphorylated by the Tec kinases, ITK and RLK
